Consider three molecules from patent publication US20250002610A1 (Genmab, published 2025).

Test [1] addresses T1, cynomolgus monkey DR4 with death domain deletion on ExpiCHO-S cells (cynomolgus monkey (Macaca fascicularis)).
T1 construct: also called cynomolgus DR4
T1 chain: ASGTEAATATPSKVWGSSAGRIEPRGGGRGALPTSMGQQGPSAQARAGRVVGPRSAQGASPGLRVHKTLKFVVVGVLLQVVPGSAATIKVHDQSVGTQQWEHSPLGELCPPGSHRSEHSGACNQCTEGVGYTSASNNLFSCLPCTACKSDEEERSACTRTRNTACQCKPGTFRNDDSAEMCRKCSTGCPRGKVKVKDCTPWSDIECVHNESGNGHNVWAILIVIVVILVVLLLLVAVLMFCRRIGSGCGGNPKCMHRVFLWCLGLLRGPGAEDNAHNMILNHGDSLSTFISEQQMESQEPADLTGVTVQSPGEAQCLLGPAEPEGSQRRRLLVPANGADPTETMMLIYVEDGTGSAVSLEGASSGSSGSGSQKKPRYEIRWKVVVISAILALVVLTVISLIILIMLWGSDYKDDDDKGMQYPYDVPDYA
The test can be described thus: flow cytometry, ExpiCHO-S cells expressing cynomolgus monkey DR4, n = 1. How it is done: Binding of BisG1-FAPα-FERL/DR4-FERR, BisG1-DR4-FEAL/b12-FEAR and IgG1-DR4-FERR to DR4 of various species commonly used for nonclinical toxicology studies was assessed by flow cytometry using ExpiCHO-S cells transiently expressing DR4 from different animal species. In contrast to other species, rodents only express one DR which has highest homology with human DR5. Therefore, ExpiCHO-S cells transiently expressing rat and mouse DR protein were used instead. All DR constructs lack the intracellular DD to avoid apoptosis of transfected cells upon DR(4) activation. IgG1-b12 was used as negative control.
For orientation: Flow cytometry measures light scatter and fluorescence of single cells or particles in a stream.

For another test, the target named is T2, human DR4HsECD-FcHisCtag (human).
T2 construct: also called recombinant human DR4
The test can be described thus: BLI, antigen captured on anti-Penta-HIS sensors. On the procedure: The binding affinity of BisG1-FAPα-FERL/DR4-FERR, BisG1-b12-FERL/DR4-FERR and control BisG1-FAPα-FERL/b12-FERR to recombinant human and cynomolgus monkey DR4 protein was determined using label-free biolayer interferometry on an Octet HTX instrument (Sartorius).
The protocol detailed in Example 5 was used with the following differences: anti-Penta-HIS biosensors (Sartorius, Cat #18-5120) were used; the sensors were preconditioned by exposure to 10 mM glycine (Sigma-Aldrich, Cat #15527) buffer pH 1.5 for 5 s, followed by neutralization in Sample Diluent (Sartorius, Cat #18-1104) for 5 s; both steps were repeated 2 times; the sensors were loaded with 50 nM human DR4HsECD-FcHisCtag (SEQ ID NO: 66), or cynomolgus DR4MfECD-FcHisCtag (SEQ ID NO: 67), for 600 s; the dissociation time was 1,000 s; The window of interest for the dissociation time was set at 100 s for the cynomolgus antigen and at 1,000 s for the human antigen.

Test [2] addresses T3, FcγRIa (CD64 Protein, Human, Recombinant (ECD, His Tag)) (human, UniProt P12314 16-292).
T3 construct: extracellular domain; Bought reagent; not shown: His tag
The test can be described thus: SPR (Biacore 8K), His-tagged FcγRIa captured on an anti-His chip, antibody as analyte, endpoint response against concentration. On the procedure: (§1) Binding of BisG1-FAPα-FERL/DR4-FERR to immobilized human His-tagged FcγRs and FcRn was analyzed by SPR using a Biacore 8K SPR system (Cytiva). To this end, anti-His antibodies were covalently immobilized on the surface of Biacore Series S Sensor Chip CM5 (Cytiva, Cat. #29104988) using the Amine Coupling Kit (Cytiva, Cat. #BR100050) and a His Capture Kit (Cytiva, Cat. #29234602) according to the manufacturer's instructions. To assess antibody binding to immobilized human FcγRs, aliquots of the recombinant His-tagged FcγR proteins (Table 24) were diluted in HBS EP+Buffer pH 7.4 (Cytiva, Cat. #BR100669) and used to capture the FcγR proteins on the surface of the anti-His antibody-coated sensors using a flow rate of 10 μL/min and a contact time of 60 s. Captured levels ranged from 434 to 592 RU. After three start-up cycles of HBS-EP+Buffer, concentration ranges of BisG1-FAPα-FERL/DR4-FERR or IgG1-b12 antibodies (Table 25) were injected to generate binding curves on FcγR-captured sensors (active surface). For each antibody sample, a parallel flow cell without captured FcγRs was included (reference surface), which was used for RU background correction.
(§2) All sensorgrams were subtracted by the signal of the third start-up cycle with buffer only (mock analyte). […]
(In general: In SPR one partner is held on a chip, and binding of the other changes the refractive index at the surface.)

Test [3] deals with T4, FcγRIIa-H131 (CD32A Protein, Human, Recombinant (167 His, His Tag)) (human, UniProt P12318 34-218, limits assumed).
T4 construct: Bought reagent; not shown: His tag
T4 sequence (looked up): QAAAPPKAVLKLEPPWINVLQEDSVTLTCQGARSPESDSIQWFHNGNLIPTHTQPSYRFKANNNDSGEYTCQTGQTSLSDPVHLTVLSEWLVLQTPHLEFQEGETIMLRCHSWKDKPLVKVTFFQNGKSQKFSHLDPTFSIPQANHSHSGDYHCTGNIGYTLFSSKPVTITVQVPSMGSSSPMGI
The test can be described thus: SPR (Biacore 8K), His-tagged FcγRIIa-H131 captured on an anti-His chip, antibody as analyte, endpoint response against concentration. How it is done:
as §1, §2

T2 sequence (chain, as listed by the source limits assumed): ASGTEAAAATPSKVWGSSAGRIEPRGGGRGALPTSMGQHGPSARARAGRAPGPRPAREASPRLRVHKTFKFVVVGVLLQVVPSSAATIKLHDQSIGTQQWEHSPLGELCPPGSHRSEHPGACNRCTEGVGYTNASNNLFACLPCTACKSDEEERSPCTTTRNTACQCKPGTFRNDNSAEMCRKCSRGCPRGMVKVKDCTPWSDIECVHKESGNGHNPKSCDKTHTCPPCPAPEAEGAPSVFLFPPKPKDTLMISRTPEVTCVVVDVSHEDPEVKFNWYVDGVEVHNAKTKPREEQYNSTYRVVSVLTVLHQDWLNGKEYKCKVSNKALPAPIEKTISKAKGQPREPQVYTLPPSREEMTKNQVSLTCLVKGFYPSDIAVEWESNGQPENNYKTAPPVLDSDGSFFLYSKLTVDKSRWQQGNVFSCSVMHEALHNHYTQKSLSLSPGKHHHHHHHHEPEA
T3 sequence (P12314 16-292): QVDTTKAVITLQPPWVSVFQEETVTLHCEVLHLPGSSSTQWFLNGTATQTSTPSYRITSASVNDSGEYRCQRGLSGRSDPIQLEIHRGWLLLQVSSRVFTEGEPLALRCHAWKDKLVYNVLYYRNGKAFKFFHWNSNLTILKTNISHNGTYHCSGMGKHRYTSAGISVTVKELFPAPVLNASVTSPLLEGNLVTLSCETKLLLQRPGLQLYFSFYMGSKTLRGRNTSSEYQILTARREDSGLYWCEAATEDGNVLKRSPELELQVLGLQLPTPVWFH

B1: IgG1-DR4-FERR (antibody, V domains shown)
VH: QVQLQESGPGLVKPSGTLSLTCAVSGGSISSYSWWSWIRQPPGKGLEWIGELYHSGSTNYNPSLKSRVTISVDKSKNQFSLKLRSVTAADTAVYYCVRGVATIDYWGQGTLVTVSS
VL: QSALTQPPSASGSPGQSVTISCTGTSSDVGGYNFVSWYQQDPGKAPKLLIYEVTKRPSGVPDRFSGSKSGNTASLTVSGLQAEDEADYYCSSYAGSNNVMFGGGTKLTVLG
notes: Bivalent monoclonal IgG1 lambda
In test [1], B1 gave a 50% effective concentration (EC50) of 2.57 µg/mL.

B2: BisG1-FAPα-FERL/b12-FERR (bispecific antibody, human IgG1, kappa)
heavy 1: EVQLLESGGGLVQPGGSPRLSCEASGFTFSSYALSWVRQAPGKGLEWVSAISGSGGGRYYADSVKGRFTISRDNSKNTLFLQMNSLRAEDTAVYYCAKEGYSSSGTYWDHWGQGTLVTVSSASTKGPSVFPLAPSSKSTSGGTAALGCLVKDYFPEPVTVSWNSGALTSGVHTFPAVLQSSGLYSLSSVVTVPSSSLGTQTYICNVNHKPSNTKVDKRVEPKSCDKTHTCPPCPAPEFERGPSVFLFPPKPKDTLMISRTPEVTCVVVDVSHEDPEVKFNWYVDGVEVHNAKTKPREEQYNSTYRVVSVLTVLHQDWLNGKEYKCKVSNKALPAPIEKTISKAKGQPREPQVYTLPPSREEMTKNQVSLTCLVKGFYPSDIAVEWESNGQPENNYKTTPPVLDSDGSFLLYSKLTVDKSRWQQGNVFSCSVMHEALHNHYTQKSLSLSPG
light 1: AIQMTQSPSSVSASVGDRVTITCRASQGVSSWLAWYQQKPGRAPKLLIYVASTLQSGVPSRFSGSGSGTDFTLTINSLQPEDFATYYCQQANSFPPTFGQGTRLEMKRTVAAPSVFIFPPSDEQLKSGTASVVCLLNNFYPREAKVQWKVDNALQSGNSQESVTEQDSKDSTYSLSSTLTLSKADYEKHKVYACEVTHQGLSSPVTKSFNRGEC
heavy 2: QVQLVQSGAEVKKPGASVKVSCQASGYRFSNFVIHWVRQAPGQRFEWMGWINPYNGNKEFSAKFQDRVTFTADTSANTAYMELRSLRSADTAVYYCARVGPYSWDDSPQDNYYMDVWGKGTTVIVSSASTKGPSVFPLAPSSKSTSGGTAALGCLVKDYFPEPVTVSWNSGALTSGVHTFPAVLQSSGLYSLSSVVTVPSSSLGTQTYICNVNHKPSNTKVDKRVEPKSCDKTHTCPPCPAPEFERGPSVFLFPPKPKDTLMISRTPEVTCVVVDVSHEDPEVKFNWYVDGVEVHNAKTKPREEQYNSTYRVVSVLTVLHQDWLNGKEYKCKVSNKALPAPIEKTISKAKGQPREPQVYTLPPSREEMTKNQVSLTCLVKGFYPSDIAVEWESNGQPENNYKTTPPVLDSDGSFFLYSRLTVDKSRWQQGNVFSCSVMHEALHNHYTQKSLSLSPG
light 2: EIVLTQSPGTLSLSPGERATFSCRSSHSIRSRRVAWYQHKPGQAPRLVIHGVSNRASGISDRFSGSGSGTDFTLTITRVEPEDFALYYCQVYGASSYTFGQGTKLERKRTVAAPSVFIFPPSDEQLKSGTASVVCLLNNFYPREAKVQWKVDNALQSGNSQESVTEQDSKDSTYSLSSTLTLSKADYEKHKVYACEVTHQGLSSPVTKSFNRGEC
On to B2, for which the binding result in the test with human DR4HsECD-FcHisCtag is “no binding (tested: 800 nM)”.

B3: IgG1-b12 (antibody)
heavy: not shown
light: B2 light 2
notes: HIV gp120 antibody b12 with wild-type IgG1 Fc; also called IgG-b12
B3: the binding result in test [2] and in test [3] was “binds” each time.

As a reminder, the EC50 is the concentration giving half of the maximal effect.
